The values that follow come from a protein production outcome set (Wang et al. 2014).

The series can be described thus: label from the status in PepcDB records.
As to “MDIQGLLERLKPFIIIVLLFSVVFYIRAEASNIGGVPADAKKFYEDADGLPYFSEMDSYYNYRLTMNYLTKGIMGDTLVDGKPYDLHSYYPPGRPVDYPPLIVYVTSAAYRVLNFFGDFSLKEVAFWMGAFIGSLCVIPAYLFVRRITNDYGGFAAALIVGLVPTYVAHTYAGFFDTDMFNFVLPLFVFWFFTEGMLASSMRGKVGYALAAAVSILVFSAAWVGYIFYLAVLIVFVAAYLVISRYILGEKPAGEFEGKLDWLIHQRELFPLLILIIAGGVLVGVFGGFSSLAGAVGGLIGATQIQATAQTTAYPNVYVSVSELQVPEFITTGAGNIFLPGQNTIVGGVGGLLVFIIGVLGVGALVWKYRQPEVVVEESENRPRAGKKSKFMRKKRAAVASEEMRHRYLLYAVLMAVWLIMSGYAVTKGSRFIPTFAMPLGLSAGIFTGFLVEYLRVRFTTTSSLALIVFVAAVAMVMPFGVSVAVKLLAGVLAAGFIYSVKKPEIRAPFMMVLVVLAAVAPSVSGAHSITTSVAPGTDDGMWNSMQWVKKNTSRDTVVMSWWDFGHLFAVAADRPVTFDGGSQNTPRAYWIGKALTTSNETLSRGILTMLSTSGDLAYETLDNYTDDSGKTAEILTATLGLPREEARAVMTGRYGLSDKEADSVLRYSHPAKPKPFVLVLSSDMLGKAPWWTYFGTWDFKKKTGSRYGYYPSLASSKPQVVNNTTVIQTVNTMVDQNNVLGTIIEKKANTTNATIAVGNNMTVQKINPHRLTIIEGDLLVKNEVVDSDAQLSLIVIGSGNQYTTIIMNRELEDSVFTKLFLLGGFNQTSFKFLHQEPGVLLWTAA”, the protein production entry is given as “failed”. As for “MLKHLDRSKKGKVARSFLQAISKDEAVAPPLRVVQIEGLAVLKIIKHCKEFSPTLVTGQLLGLDVGSVLEVTNCFPFPVRDDDEEIEADGANYQLEMMRCLREVNVDNNTVGWYQSTVLGSYQTVELIETFMNYQENIKRCVCIIYDPSKADLGVLALKALKLSDSFMELYRGGNFTGEKLREKNFSWMDIFEEIPIKVSNSALVSAFMTELETDTPVSQGDYDRLHSSTTPFLENNMEFLIKCMDDLSMEQQKFQYYYRNLSRQQAQQQAWLQKRRTENMARKSAGEEPLPEEDPSNPIFKAIPEPSRLESFLITNQVSNFCGQINGVAGQNFSRLYLTKALHDN”, the entry is “failed”; as for “EVSYAKERVRLITASGRTHDLTVELAVDPSQREQGLMYRRQMAPDHGMLFDFGETRPVMMWMKNTYLPLDMLFIASDGTIRTIHENAVPHSEAIIDSREPVAYVLELNAGTVKRLGVSPGDRLEGAGLPATKRAN”, “not failed”. For “MMKLLHLFMDEITMDPLHAVYLTVGLFVITFFNPGANLFVVVQTSLASGRRAGVLTGLGVALGDAFYSGLGLFGLATLITQCGEIFSLIRIVGGAYLLWFAWCSSMRRHSTPQMSTLQQPISAPWYVFFRRGLITDLSNPQTVLFFISIFSVTLHAETPTWARLMAWAGIVLASIIWRVFLSQAFSLPAVRRAYGRMQRVASWVIGAIIGVFALRLIYEGVTQR”, the protein production result is on record as “failed”. With “MPNGPTCAARRARARSALVGGEGFRMEWSGKRVSDGSATRPTVAAWVSGGFGSGESVAAFKALATEAEAGDASAQRRLGLCFRDGLGTDRDIHRAKAWYQRSAAQNDPMAALELGLMLESGLGISSDHGEAGKWYRVALDLWRDRAEGGDALGQFVLGLCHEVGAGVPAAHREALKWYGRSAERGCAHAQWALGRLHEDGLGVVRDYSEAVRCYRAAAFQGHARACFNLGLMAELGLGMVRDADCSASWYGKALEVWRRWAELGDPAAATALAAMYEAGHGVAKDYAVAVCWYRRAARQGNPLAQFELGRLSMEGRGVERNDVEAVGWFRLAAERGHADAQFHLGLMHEHGRGVTRRFEEAFRWYDKAADEGPARRWDAFHRLVPAAGEVPEGCGLGAW”, the protein production result was “failed”. In the case of “MSLSVPFEYTPIAQSVLDECEHLDTASLSDALDSLGIDGGLPGIASQVPGTRCVGIAFTVQYQPVDASEGFRGAANYIDQVPSGSVIVSSNSGRHDCTVWGDIMTHFALANGIKGTVIDGVARDIDTVINCNYPLFSRGRFMQSAKNRTQLKAVQVPLVIDGITIQPGDLMVCDGSGCVVVPQQLAAEVVLRARAVEQTERRIIEAISSGSTLEQARMTYRYDQPWLSEAEHGGTQEGHHHHHH”, the protein production result is on record as “not failed”. Consider “MAARRAPISRRDRPAKPALSRRWIVDTAVALMRAEGLEKVTMRRLAQELDTGPASLYVYVANTAELHAAVLDALLGEVDLTGAGAEEDWREQLRAVLTSYTLVLFAHPQLARSALVARPSGENYLRLVERVLELLARSGAPGAQVAWGVDKLLQDATATAAEQATQEHDPASHEDWSATVRALRDADEATHPAIASHMPLLVAGSAHDRLRWSFDVLVNGITRTPVPGPARGAAG”, for which the protein production result is on record as “not failed”. As for “MAKTDARSPRTERGTIALQDASQDIWDKKYRLKSKDGTPVDASVDGTWQRVARALADVEDKASREHWYGRFLWALRNGAIPAGRIISNAGALGHKPATSTINCTVSGTIQDSMDNILEKVHEAGLTLKAGCGIGYEFSTLRPRGAYVSGAGAYTSGPLSFMDIYDKMCFTVSSAGGRRGAQMGTFDVSHPDVREFIRAKREDGRLRQFNLSLLITDQFMQAVEQDADWPLVFPVHVKERDEIDLDDPNAVVWREWPIQDDYVQRADGLVACKVYGQVRARHLWDMIMVSTYDYAEPGFILIDRVNELNNNWWCEAIRATNPCGEQPLPPYGSCLLGSVNLTCFVEQPFGDEARFDWDRFREVVRVFTRMLDNVVEINGLPLEQQRQEILGKRRHGMGFLGLGSTLTLLKLRYGSPEACVFTEEVAREMALVGWEVALELAREKGPAPILAQDYEVTAEMLRKRPEMAADGYKAGDRIRGSVLHAKYSRYMQRVAEHAPELIEALAETGARFTHHSSIAPTGTISLSLANNASNGIEPSFAHHYSRNLIREGRKTKEKVEVYSYELLAYRTLVNAQALPDSDDPARRLPDYFITADSVTPAQHMDIQAAAQKWVDSSISKTANVPTDYPFEDFKDIYRYAWHQGLKGCTTFRFNPEAFQGVLVKESDLEKTRYRFELEDGSVVEFKGNEQVEYDGEIHTAANLFDALKEGYYGK”, the entry is “failed”. As to “MSLLHIAVLLPLIFALIIPFLYRFVKRIHLGWFVLPVPIVLFIYFISLISMTMSGNNVMKNLNWMPHIGMNFNLYVDGLGLLFSLLITGIGSLVVLYSIGYLSKSEQLGNFYCYLLLFMGAMLGVVLSDNFIILYLFWELTSFSSFLLISFWREKKASIYGAQKSLIITVLGGLSMLGGIILLSLATDTFSIQAMISKASDIQNSPFFILVMILFMIGAFTKSAQVPFYIWLPDAMEAPTPVSAYLHSATMVKAGLYLIARITPIFAISEGWVWTITLVGLITLFWASLNATKQHDLKGILAFSTVSQLGMIMSMLGIGAVSYHYQGANSQLYVAGFVAAIFHLINHATFKGALFMITGGIDHSTGTRDVKKLGGLLTIMPISFTLTVITTLSMAGVPPFNGFLSKEKFLESMINVTHLNLMSLNTLGILLPIIAIIGSIFTFVYSIKFILHIFFGSYKPEALPKQAHESSILMLISPIILTSLVIVFGLFPSILTQSIIEPASVAVSQTSNITAEFHLFHGITPAFLSTIGIYIIGILLLISFSYWVRLLQAHPYQLTLNHWYDTSGQRIPGYSENITNSYVTGFSRNNLVIILGILIALTFVTVISVPFSIDFKNVSHLRVFEGATVLFLLIASTFIIFAKSRLFSIIMLSAVGYAISVLFIFFKAPDLALTQFVVESISTALFLLCFYHLPNLNRYNEKPTFKLTNAVISIGVGLSVIILGLIGYGNRHFDSITKFYQEHVFDLAHGKNMVNVILVDFRGMDTLFESSVLGIAGLGVYTMIKLRLKQKNQSSEVNDHE”, the protein production entry is on record as “failed”. On to “MKNYTLISPCFFGMEKMLAREITNLGYEIIKTEDGRITYKTDEFGIAKSNMWLRCAERVHLKIAEFEAKSFDELFENTKRINWSRYIPYGAQFPISKASSIKSKLYSTPDVQAIVKKAIVESLKKSYLEDGLLKEDKEKYPIFVFIHKDKVTISIDTTGDALHKRGYREKANKAPIRETLAAGLIYLTPWKAGRVLVDPMCGSGTILIEAAMIGINMAPGLNREFISEKWRTLDKKIWWDVRKDAFNKIDNESKFKIYGYDIDEESIDIARENAEIAGVDEYIEFNVGDATQFKSEDEFGFIITNPPYGERLEDKDSVKQLYKELGYAFRKLKNWSYYLITSYEDFEYEFGQKADKKRKLYNGMLKTNFFQYPGPKPPRNNK”, for which the protein production result is given as “not failed”.

With “MNTRPFYFGLIFIAIIAILANYLGNTDFSHHYHISALIIAILLGMAIGNTIYPQFSTQVEKGVLFAKGALLRTGIVLYGFRLTFGDIADVGLNAVVTDAIMLISTFFFTALLGIRYLKMDKQLVYLTGAGCSICGAAAVMAAEPVTKAESHKVSVAIAVVVIFGTLAIFTYPLFYTWSQHLINAHQFGIYVGSSVHEVAQVYAIGENIDPIVANTAVISKMIRVMMLAPFLLMLSWLLTRSNGVSENTSHKITIPWFAVLFIGVAIFNSFDLLPKELVKLFVEIDSFLLISSMAALGLTTQASAIKKAGLKPFVLGILTYLWLVVGGFLVNYGISKLI”, the protein production result is “failed”.

Take “MGLQGQLSDVSSDSIPLMLLSLLAVFINHLRSFLLRLTSKSNPNLPVDDVSIASGLANIIVLADQLSLNRLFSYRCGDGGGGGSDCVVCLSKLKEGEEVRKLECRHVFHKKCLEGWLHQFNFTCPLCRSALVSDDCVSKTQRSVGRDLISCFSLH”: the protein production result is on record as “failed”. Take “MVTIANDFLTVKISRHGAELTSIKDNLTGRERLWQADPAVWGRHAPVLFPIVGALADNQYHYAGKTYHMGQHGFARDRDFTVLSATPFKASFVLKDDDKTRAMYPFAFRLIITFALENNNLHVTYHVDNPDKSEPLFFSIGGHPGFKVPMTPDTQFSDYYLNFKPRKSLVQIPLVAGEGIDYTHRTLAATDANLALTHETFDHDALIFALLGKTTFNLVSDKTKHGVSVTMTDTPYLGVWSPYPTTGDFVCIEPWWGIADTIGSTGDLTRKLGINRLEPGTAFEKGYMISIFLEHHHHHH”: the protein production result is “failed”. Consider “MVDPNEHKKAVKTQQQDDEQTFEAVARAWHTDNKKWSESHAERILKSLSDNIFPAIGGTHVANLKTRDLLTPIKSVERSGRLEVAKRLKQRVTAIMTYAVQNGLIDYNPAQDMAGAIMPGKVEHRLEHHHHHH”, for which the protein production entry is reported as “failed”.

For “MTESFTRRERLRLRRDFLLIFKEGKSLQNEYFVVLFRKNGLDYSRLGIVVKRKFGKATRRNKLKRWVREIFRRNKGVIPKGFDIVVIPRKKLSEEFERVDFWTVREKLLNLLKRIEG”, the protein production result is on record as “not failed”.

In the case of “MVWAPLGPPRTDCLTLLHTPSKDSPKMSLEWLVAWSWSLDGLRDCIATGIQSVRDCDTTAVITVACLLVLFVWYCYHVGREQPRPYVSVNSLMQAADANGLQNGYVYCQSPECVRCTHNEGLNQKLYHNLQEYAKRYSWSGMGRIHKGIREQGRYLNSRPSIQKPEVFFLPDLPTTPYFSRDAQKHDVEVLERNFQTILCEFETLYKAFSNCSLPQGWKMNSTPSGEWFTFYLVNQGVCVPRNCRKCPRTYRLLGSLRTCIGNNVFGNACISVLSPGTVITEHYGPTNIRIRCHLGLKTPNGCELVVGGEPQCWAEGRCLLFDDSFLHAAFHEGSAEDGPRVVFMVDLWHPNVAAAERQALDFIFAPGR”, the protein production result is reported as “failed”. For “MSESKEMVRGTFLITISILITKVLGVLFIIPFTALIGGQANMAPFTYAYAPYNIAIAIATAGVPLAASKYVAKYNALGAYKVSQKFYKSSFVVMSITGIVGFLVLYLLAPYIAELTLSRNTHGNNGWTVADITWIIRIISMVVIFIPVLATWRGIFQGYKSMGPTAVSEVTEQIARIVFILVGSYLTLNVFGGTVLQANGIATFAAAIGAIAGILTLWYYWIKRRKNIKKMIDSDTANLNVSYGKMYKEIIAYSIPFVIVSLNFPLFNLVDQFTHNGALNLVGVKPGLQDIFFNMLNMSTNKIVMIPTSLSAGFAVSLIPFITKTYEEGRYAEMHRQIRTSIGVLMFITVPASIGIMALAQPLFTVFYGFDPVVHGHDPNFDGSRLLFYYAPVAILISLLSVTASMLQGIDKQKLTVFIILGSVLIKLILNYPLIMLLHTPGAVLSTAIALLFAICCNFYILKKYANFKFSYSWIHLAKIILISIIMMIGVEVIFFILRLFLEPTRFNYLIIVAIGVIVGAIIYGGITIKTKLADEFLGDIPAKIRRKVKMLR”, the protein production entry is “failed”.
